Test results as given in patent US20260224661A1 (Stanford University, published 2026).
One block for each binder: values may come before it.

Legend:
[1] = target: Tenm1 (as used in the affinity determinations of FIG. 2E-F) (UniProt Q9UKZ4 1-2725); test: surface binding saturation curve
[2] = target: T1, Tenm4 expressed in HEK293 cells (mouse, UniProt Q3UHK6 1-2771); test: surface-binding assay on HEK293 cells expressing Tenm4 (FIG. 4E)
T1 construct: also called teneurin-4

[3] = target: T2, Tenm1 expressed in HEK293 cells (human, UniProt Q9UKZ4 1-2725); test: surface-binding assay on HEK293 cells expressing Tenm1 (FIG. 4E)
T2 construct: also called teneurin-1

[4] = target: T3, Tenm2 expressed in HEK293 cells (human, UniProt Q9NT68 1-2774); test: surface-binding assay on HEK293 cells expressing Tenm2 (FIG. 4E)
T3 construct: also called teneurin-2

[5] = target: T4, Tenm3 expressed in HEK293 cells (mouse, UniProt Q9WTS6 1-2715); test: surface-binding assay on HEK293 cells expressing Tenm3 (FIG. 4E)
T4 construct: also called teneurin-3

Tenm1 (as used in the affinity determinations of FIG. 2E-F), sequence (Q9UKZ4 other isoform, or with tags, fused parts or gaps): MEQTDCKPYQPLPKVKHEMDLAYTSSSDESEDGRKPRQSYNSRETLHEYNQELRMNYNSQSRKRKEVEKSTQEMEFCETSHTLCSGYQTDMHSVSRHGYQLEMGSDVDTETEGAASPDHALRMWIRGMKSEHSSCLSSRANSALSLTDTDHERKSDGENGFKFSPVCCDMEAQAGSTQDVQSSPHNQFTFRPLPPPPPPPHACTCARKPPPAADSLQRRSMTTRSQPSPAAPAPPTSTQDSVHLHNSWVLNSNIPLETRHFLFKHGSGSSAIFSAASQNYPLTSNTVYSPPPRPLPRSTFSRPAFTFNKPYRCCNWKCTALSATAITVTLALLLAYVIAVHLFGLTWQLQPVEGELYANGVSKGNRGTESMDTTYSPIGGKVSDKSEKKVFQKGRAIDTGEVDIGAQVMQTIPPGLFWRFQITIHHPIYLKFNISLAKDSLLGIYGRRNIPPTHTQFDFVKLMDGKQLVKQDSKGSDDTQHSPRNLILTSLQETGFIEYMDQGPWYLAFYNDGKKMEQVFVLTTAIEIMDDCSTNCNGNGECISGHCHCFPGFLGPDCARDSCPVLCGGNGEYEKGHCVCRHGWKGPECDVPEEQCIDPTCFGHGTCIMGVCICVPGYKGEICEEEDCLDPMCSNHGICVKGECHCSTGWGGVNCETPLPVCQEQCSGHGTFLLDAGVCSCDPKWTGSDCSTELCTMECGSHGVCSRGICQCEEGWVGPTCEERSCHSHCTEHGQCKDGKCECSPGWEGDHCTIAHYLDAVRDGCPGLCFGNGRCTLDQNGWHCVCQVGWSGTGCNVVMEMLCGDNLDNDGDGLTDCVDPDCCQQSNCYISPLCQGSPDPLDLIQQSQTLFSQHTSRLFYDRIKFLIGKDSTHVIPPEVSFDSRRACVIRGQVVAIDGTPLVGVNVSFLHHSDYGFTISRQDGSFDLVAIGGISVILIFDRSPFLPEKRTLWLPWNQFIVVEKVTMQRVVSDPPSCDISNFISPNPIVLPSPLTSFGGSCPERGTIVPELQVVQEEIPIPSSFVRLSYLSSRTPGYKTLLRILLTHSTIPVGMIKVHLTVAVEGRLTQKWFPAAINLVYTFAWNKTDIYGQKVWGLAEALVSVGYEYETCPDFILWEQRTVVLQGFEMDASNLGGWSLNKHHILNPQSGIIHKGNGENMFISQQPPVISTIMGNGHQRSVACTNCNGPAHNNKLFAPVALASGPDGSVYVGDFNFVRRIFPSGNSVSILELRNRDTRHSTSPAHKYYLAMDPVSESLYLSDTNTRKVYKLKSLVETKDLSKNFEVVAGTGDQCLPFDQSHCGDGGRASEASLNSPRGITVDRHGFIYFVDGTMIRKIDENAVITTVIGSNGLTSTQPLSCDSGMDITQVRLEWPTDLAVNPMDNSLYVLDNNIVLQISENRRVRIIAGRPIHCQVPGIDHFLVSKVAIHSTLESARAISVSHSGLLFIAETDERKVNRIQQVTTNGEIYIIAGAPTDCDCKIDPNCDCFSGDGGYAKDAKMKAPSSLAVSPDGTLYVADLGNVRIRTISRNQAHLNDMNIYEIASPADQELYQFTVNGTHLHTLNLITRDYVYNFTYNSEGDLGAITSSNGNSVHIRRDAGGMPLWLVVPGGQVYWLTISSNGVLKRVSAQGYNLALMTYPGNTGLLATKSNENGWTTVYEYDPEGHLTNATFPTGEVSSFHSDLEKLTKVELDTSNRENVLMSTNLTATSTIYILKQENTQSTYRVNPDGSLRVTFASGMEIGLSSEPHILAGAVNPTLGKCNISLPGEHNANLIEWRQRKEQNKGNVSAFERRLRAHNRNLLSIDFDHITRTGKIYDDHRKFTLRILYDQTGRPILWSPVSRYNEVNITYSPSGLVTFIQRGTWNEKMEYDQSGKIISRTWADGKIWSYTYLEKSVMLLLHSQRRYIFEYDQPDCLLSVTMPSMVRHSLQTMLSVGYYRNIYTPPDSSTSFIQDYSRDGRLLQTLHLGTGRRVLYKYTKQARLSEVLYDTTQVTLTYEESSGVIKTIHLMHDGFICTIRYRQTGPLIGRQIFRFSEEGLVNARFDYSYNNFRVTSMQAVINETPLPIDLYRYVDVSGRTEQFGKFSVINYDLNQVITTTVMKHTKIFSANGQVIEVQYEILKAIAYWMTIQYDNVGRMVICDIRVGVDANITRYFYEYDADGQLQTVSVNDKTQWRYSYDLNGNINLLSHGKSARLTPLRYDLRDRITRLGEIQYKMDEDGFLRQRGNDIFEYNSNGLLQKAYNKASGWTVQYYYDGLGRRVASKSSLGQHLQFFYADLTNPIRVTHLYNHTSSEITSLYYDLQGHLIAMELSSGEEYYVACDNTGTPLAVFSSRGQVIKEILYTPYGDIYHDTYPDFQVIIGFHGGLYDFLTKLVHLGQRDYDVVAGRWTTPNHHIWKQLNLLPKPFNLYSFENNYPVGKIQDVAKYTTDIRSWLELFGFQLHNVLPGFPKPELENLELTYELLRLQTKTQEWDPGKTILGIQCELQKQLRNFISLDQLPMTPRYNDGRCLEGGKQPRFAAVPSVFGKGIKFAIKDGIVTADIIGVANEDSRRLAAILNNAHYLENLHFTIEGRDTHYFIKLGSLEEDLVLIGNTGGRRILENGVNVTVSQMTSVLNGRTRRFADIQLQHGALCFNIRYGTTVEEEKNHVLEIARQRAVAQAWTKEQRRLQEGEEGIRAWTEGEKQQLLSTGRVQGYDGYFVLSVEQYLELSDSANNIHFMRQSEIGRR
T2 sequence (Q9UKZ4 other isoform, or with tags, fused parts or gaps): as above

Kd [1]: 73.2 nM
B1: full-length SPARCL1 (ligand)
chain: IPTSTRFLSDHSNPTTATLVTPEDATVPIAGVEATADIENHPNDKAEKPSALNSEEETHEQSTEQDKTYSFEVDLKDEEDGDGDLSVDPTEGTLTLDLQEGTSEPQQKSLPENGDFPATVSTSYVDPNQRANITKGKESQEQPVSDSHQQPNESSKQTQDLKAEESQTQDPDIPNEEEEEEEDEEEEEEEEPEDIGAPSDNQEEGKEPLEEQPTSKWEGNREQSDDTLEESSQPTQISKTEKHQSEQGNQGQESDSEAEGEDKAAGSKEHIPHTEQQDQEGKAGLEAIGNQKDTDEKAVSTEPTDAAVVPRSHGGAGDNGGGDDSKHGAGDDYFIPSQEFLEAERMHSLSYYLKYGGGEETTTGESENRREAADNQEAKKAESSPNAEPSDEGNSREHSAGSCTNFQCKRGHICKTDPQGKPHCVCQDPETCPPAKILDQACGTDNQTYASSCHLFATKCRLEGTKKGHQLQLDYFGACKSIPACTDFEVAQFPLRMRDWLKNILMQLYEPNPKHGGYLNEKQRSKVKKIYLDEKRLLAGDHPIELLLRDFKKNYHMYVYPVHWQFNELDQHPADRILTHSELAPLRASLVPMEHCITRFFEECDPNKDKHITLKEWGHCFGIKEEDIDENLLF

binding result [2]: no binding | binding result [3]: no binding | binding result [4]: no binding | binding result [5]: no binding
B2: EF-hand Ca2+-binding domain of SPARCL1 (ligand)
chain: ACTDFEVAQFPLRMRDWLKNILMQLYEPNPKHGGYLNEKQRSKVKKIYLDEKRLLAGDHPIELLLRDFKKNYHMYVYPVHWQFNELDQHPADRILTHSELAPLRASLVPMEHCITRFFEECDPNKDKHITLKEWGHCFGIKEEDIDENLLF
notes: also called EF-hand domain; EC domain

Kd [1]: 88.2 nM
B3: C-terminal SPARCL1-C domain of SPARCL1 (ligand)
chain: PNAEPSDEGNSREHSAGSCTNFQCKRGHICKTDPQGKPHCVCQDPETCPPAKILDQACGTDNQTYASSCHLFATKCRLEGTKKGHQLQLDYFGACKSIPACTDFEVAQFPLRMRDWLKNILMQLYEPNPKHGGYLNEKQRSKVKKIYLDEKRLLAGDHPIELLLRDFKKNYHMYVYPVHWQFNELDQHPADRILTHSELAPLRASLVPMEHCITRFFEECDPNKDKHITLKEWGHCFGIKEEDIDENLLF
